Assay [1] has as its target T1, recombinant Fc-tagged NRP2 ectodomain (human, UniProt O60462 21-864).
T1 construct: not shown: Fc, C-terminal, kept
T1 sequence: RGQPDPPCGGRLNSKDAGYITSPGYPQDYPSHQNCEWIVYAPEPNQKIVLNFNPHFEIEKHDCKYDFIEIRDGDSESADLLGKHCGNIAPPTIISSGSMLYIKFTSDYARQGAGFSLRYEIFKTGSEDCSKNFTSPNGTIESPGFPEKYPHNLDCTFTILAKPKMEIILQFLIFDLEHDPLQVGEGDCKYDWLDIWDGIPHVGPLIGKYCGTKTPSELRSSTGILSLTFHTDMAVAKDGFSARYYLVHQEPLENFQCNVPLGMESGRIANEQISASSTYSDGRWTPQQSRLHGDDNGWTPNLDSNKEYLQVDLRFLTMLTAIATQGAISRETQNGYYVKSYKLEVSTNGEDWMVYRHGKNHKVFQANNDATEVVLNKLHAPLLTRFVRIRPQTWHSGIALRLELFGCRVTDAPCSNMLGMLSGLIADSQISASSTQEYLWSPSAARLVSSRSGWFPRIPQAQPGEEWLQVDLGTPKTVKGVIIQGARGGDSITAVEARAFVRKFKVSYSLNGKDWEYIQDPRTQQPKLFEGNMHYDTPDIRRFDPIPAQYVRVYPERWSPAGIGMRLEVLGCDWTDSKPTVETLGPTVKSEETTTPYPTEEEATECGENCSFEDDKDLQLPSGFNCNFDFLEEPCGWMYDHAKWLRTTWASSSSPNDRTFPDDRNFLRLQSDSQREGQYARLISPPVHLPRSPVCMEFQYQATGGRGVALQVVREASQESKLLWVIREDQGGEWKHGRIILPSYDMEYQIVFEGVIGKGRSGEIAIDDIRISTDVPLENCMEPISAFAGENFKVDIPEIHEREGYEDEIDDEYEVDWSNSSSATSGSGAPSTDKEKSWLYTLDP
The experiment in a line: […] (10, 20 or 50 µL, […]) in 0.2 mL PBS for 2 h; […]. The following applies: both partners purified.

Assay [2] has as its target T2, N-terminal GST-tagged soluble ectodomain of NRP2 (aa 17-865) (human, UniProt O60462 17-865).
T2 construct: not shown: GST, N-terminal, kept
T2 sequence: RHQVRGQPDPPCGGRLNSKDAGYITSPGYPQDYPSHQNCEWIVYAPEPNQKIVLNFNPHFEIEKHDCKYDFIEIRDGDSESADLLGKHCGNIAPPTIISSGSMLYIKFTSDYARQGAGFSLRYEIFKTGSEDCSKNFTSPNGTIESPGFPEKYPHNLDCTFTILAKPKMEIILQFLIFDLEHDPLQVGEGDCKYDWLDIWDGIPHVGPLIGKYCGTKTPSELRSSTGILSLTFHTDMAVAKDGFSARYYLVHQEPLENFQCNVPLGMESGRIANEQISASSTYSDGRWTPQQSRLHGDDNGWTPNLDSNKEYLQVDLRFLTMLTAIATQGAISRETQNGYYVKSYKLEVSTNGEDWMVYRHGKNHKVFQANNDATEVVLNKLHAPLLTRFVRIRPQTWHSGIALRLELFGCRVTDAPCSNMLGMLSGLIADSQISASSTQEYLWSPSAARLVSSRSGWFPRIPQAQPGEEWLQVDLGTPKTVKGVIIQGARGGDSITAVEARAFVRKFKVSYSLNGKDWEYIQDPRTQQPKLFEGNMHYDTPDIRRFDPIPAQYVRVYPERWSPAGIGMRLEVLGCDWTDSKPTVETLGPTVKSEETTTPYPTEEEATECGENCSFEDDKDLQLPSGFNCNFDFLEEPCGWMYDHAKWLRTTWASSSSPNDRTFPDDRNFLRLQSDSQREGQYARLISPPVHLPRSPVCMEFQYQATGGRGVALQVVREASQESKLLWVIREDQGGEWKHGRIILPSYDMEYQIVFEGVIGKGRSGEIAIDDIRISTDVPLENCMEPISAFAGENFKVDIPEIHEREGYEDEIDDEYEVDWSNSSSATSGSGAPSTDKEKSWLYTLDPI
The experiment in a line: pull-down. The following applies: both partners purified.

B1: RABV G on purified ERA(G/Flag) particles (natural protein)
chain: KFPIYTILDKLGPWSPIDIHHLSCPNNLVVEDEGCTNLSGFSYMELKVGYILAIKMNGFTCTGVVTEAETYTNFVGYVTTTFKRKHFRPTPDACRAAYNWKMAGDPRYEESLHNPYPDYRWLRTVKTTKESLVIISPSVADLDPYDRSLHSRVFPSGKCSGVAVSSTYCSTNHDYTIWMPENPRLGMSCDIFTNSRGKRASKGSETCGFVDERGLYKSLKGACKLKLCGVLGLRLMDGTWVAMQTSNETKWCPPDQLVNLHDFRSDEIEHLVVEELVRKREECLDALESIMTTKSVSFRRLSHLRKLVPGFGKAYTIFNKTLMEADAHYKSVRTWNEILPSKGCLRVGGRCHPHVNGVFFNGIILGPDGNVLIPEMQSSLLQQHMELLESSVIPLVHPLADPSTVFKDGDEAEDFVEVHLPDVHNQVSGVDLGLPNWGKYVLLSAGALTALMLIIFLMTCCRRVNRSEPTQHNLRGTGREVSVTPQSGKIISSWESHKSGGETRL
With B1, the binding result in assay [1] and in assay [2] was “binds” each time.

The values above are taken from PMC12282144 (Journal of Virology, 2025).
